# In patent publication US20150344570A1 (published 2015):
# Biological target: T1, FcγRIa (human, UniProt P12314 16-292)
# T1 construct: extracellular domain; Soluble extracellular domain with C-terminal His tag, expressed in FreeStyle293 cells; analyte in Biacore; also called FcgRI; CD64; not shown: His tag attached to the C terminus
# Experiment: SPR (Biacore), antibody captured on antigen-peptide chip, FcγRIa as analyte; binding activity relative to control GpH7-A5/GpH7-B3/GpL16-k0 (HeCon Ab) x100
# Procedure: Analysis of interaction between objective antibody and the FcγR was carried out using Biacore T100 (GE Healthcare). HBS-EP+ (GE Healthcare) was used as the running buffer, and the measurement temperature was set to 25° C. Chips produced by immobilizing the antigen peptide by the amine coupling method to a Series S Sencor Chip CM5 (GE Healthcare), or alternatively, chips produced by allowing preliminarily biotinylated antigen peptides to interact with and immobilize onto a Series S Sensor Chip SA (certified) (GE Healthcare) were used. Antibodies of interest were captured onto an antigen peptide-immobilized chip, and allowed to interact to each FcγR diluted with running buffer. To regenerate and repeatedly use the chip, the antibodies captured on the chip were washed off by reacting 10 mM glycine-HCl, pH 1.5.
# T1 sequence (P12314 16-292): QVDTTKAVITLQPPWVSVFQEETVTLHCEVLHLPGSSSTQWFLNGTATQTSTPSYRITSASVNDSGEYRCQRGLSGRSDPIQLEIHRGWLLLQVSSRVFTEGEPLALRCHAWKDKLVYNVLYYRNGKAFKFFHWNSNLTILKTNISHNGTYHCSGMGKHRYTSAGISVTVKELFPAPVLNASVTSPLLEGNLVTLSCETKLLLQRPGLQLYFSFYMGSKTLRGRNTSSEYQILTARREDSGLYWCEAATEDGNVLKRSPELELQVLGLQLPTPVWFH
row,Binder,He/Con_1a
1,"GpH7-A5/GpH7-B3 variant Y296_13S/GpL16-k0 (heterodimerized antibody, He Ab) (antibody, human IgG1, kappa, Anti-glypican-3 IgG1; alteration only in the GpH7-B3 (K439E) chain; other H chain is GpH7-A5 (D356K/H435R)) heavy 1: not shown heavy 2: not shown light: DIVMTQSPLSLPVTPGEPASISCQASESLVHSNRNTYLHWYLQKPGQSPQLLIYKVSNRFSGVPDRFSGSGSGTDFTLKISRVEAEDVGVYYCSQNTHVPPTFGQGTKVEIERTVAAPSVFIFPPSDEQLKSGTASVVCLLNNFYPREAKVQWKVDNALQSGNSQESVTEQDSKDSTYSLSSTLTLSKADYEKHKVYACEVTHQGLSSPVTKSFNRGEC",105 % of control (=100)
2,"GpH7-A5/GpH7-B3 variant Y296_12R/GpL16-k0 (heterodimerized antibody, He Ab) (antibody, human IgG1, kappa, Anti-glypican-3 IgG1; alteration only in the GpH7-B3 (K439E) chain; other H chain is GpH7-A5 (D356K/H435R)) heavy 1: not shown heavy 2: not shown light: DIVMTQSPLSLPVTPGEPASISCQASESLVHSNRNTYLHWYLQKPGQSPQLLIYKVSNRFSGVPDRFSGSGSGTDFTLKISRVEAEDVGVYYCSQNTHVPPTFGQGTKVEIERTVAAPSVFIFPPSDEQLKSGTASVVCLLNNFYPREAKVQWKVDNALQSGNSQESVTEQDSKDSTYSLSSTLTLSKADYEKHKVYACEVTHQGLSSPVTKSFNRGEC",106 % of control (=100)
3,"GpH7-A5/GpH7-B3 variant Y296_10E/GpL16-k0 (heterodimerized antibody, He Ab) (antibody, human IgG1, kappa, Anti-glypican-3 IgG1; alteration only in the GpH7-B3 (K439E) chain; other H chain is GpH7-A5 (D356K/H435R)) heavy 1: not shown heavy 2: not shown light: DIVMTQSPLSLPVTPGEPASISCQASESLVHSNRNTYLHWYLQKPGQSPQLLIYKVSNRFSGVPDRFSGSGSGTDFTLKISRVEAEDVGVYYCSQNTHVPPTFGQGTKVEIERTVAAPSVFIFPPSDEQLKSGTASVVCLLNNFYPREAKVQWKVDNALQSGNSQESVTEQDSKDSTYSLSSTLTLSKADYEKHKVYACEVTHQGLSSPVTKSFNRGEC",106 % of control (=100)
4,"GpH7-A5/GpH7-B3 variant Y296_14T/GpL16-k0 (heterodimerized antibody, He Ab) (antibody, human IgG1, kappa, Anti-glypican-3 IgG1; alteration only in the GpH7-B3 (K439E) chain; other H chain is GpH7-A5 (D356K/H435R)) heavy 1: not shown heavy 2: not shown light: DIVMTQSPLSLPVTPGEPASISCQASESLVHSNRNTYLHWYLQKPGQSPQLLIYKVSNRFSGVPDRFSGSGSGTDFTLKISRVEAEDVGVYYCSQNTHVPPTFGQGTKVEIERTVAAPSVFIFPPSDEQLKSGTASVVCLLNNFYPREAKVQWKVDNALQSGNSQESVTEQDSKDSTYSLSSTLTLSKADYEKHKVYACEVTHQGLSSPVTKSFNRGEC",105 % of control (=100)

# Next, values leading:
row,He/Con_1a,Binder
1,113 % of control (=100),"GpH7-A5/GpH7-B3 variant Y300_08L/GpL16-k0 (heterodimerized antibody, He Ab) (antibody, human IgG1, kappa, Anti-glypican-3 IgG1; alteration only in the GpH7-B3 (K439E) chain; other H chain is GpH7-A5 (D356K/H435R)) heavy 1: not shown heavy 2: not shown light: DIVMTQSPLSLPVTPGEPASISCQASESLVHSNRNTYLHWYLQKPGQSPQLLIYKVSNRFSGVPDRFSGSGSGTDFTLKISRVEAEDVGVYYCSQNTHVPPTFGQGTKVEIERTVAAPSVFIFPPSDEQLKSGTASVVCLLNNFYPREAKVQWKVDNALQSGNSQESVTEQDSKDSTYSLSSTLTLSKADYEKHKVYACEVTHQGLSSPVTKSFNRGEC"
2,112 % of control (=100),"GpH7-A5/GpH7-B3 variant Y300_19Q/GpL16-k0 (heterodimerized antibody, He Ab) (antibody, human IgG1, kappa, Anti-glypican-3 IgG1; alteration only in the GpH7-B3 (K439E) chain; other H chain is GpH7-A5 (D356K/H435R)) heavy 1: not shown heavy 2: not shown light: DIVMTQSPLSLPVTPGEPASISCQASESLVHSNRNTYLHWYLQKPGQSPQLLIYKVSNRFSGVPDRFSGSGSGTDFTLKISRVEAEDVGVYYCSQNTHVPPTFGQGTKVEIERTVAAPSVFIFPPSDEQLKSGTASVVCLLNNFYPREAKVQWKVDNALQSGNSQESVTEQDSKDSTYSLSSTLTLSKADYEKHKVYACEVTHQGLSSPVTKSFNRGEC"
3,112 % of control (=100),"GpH7-A5/GpH7-B3 variant Y300_02A/GpL16-k0 (heterodimerized antibody, He Ab) (antibody, human IgG1, kappa, Anti-glypican-3 IgG1; alteration only in the GpH7-B3 (K439E) chain; other H chain is GpH7-A5 (D356K/H435R)) heavy 1: not shown heavy 2: not shown light: DIVMTQSPLSLPVTPGEPASISCQASESLVHSNRNTYLHWYLQKPGQSPQLLIYKVSNRFSGVPDRFSGSGSGTDFTLKISRVEAEDVGVYYCSQNTHVPPTFGQGTKVEIERTVAAPSVFIFPPSDEQLKSGTASVVCLLNNFYPREAKVQWKVDNALQSGNSQESVTEQDSKDSTYSLSSTLTLSKADYEKHKVYACEVTHQGLSSPVTKSFNRGEC"
4,111 % of control (=100),"GpH7-A5/GpH7-B3 variant Y300_13S/GpL16-k0 (heterodimerized antibody, He Ab) (antibody, human IgG1, kappa, Anti-glypican-3 IgG1; alteration only in the GpH7-B3 (K439E) chain; other H chain is GpH7-A5 (D356K/H435R)) heavy 1: not shown heavy 2: not shown light: DIVMTQSPLSLPVTPGEPASISCQASESLVHSNRNTYLHWYLQKPGQSPQLLIYKVSNRFSGVPDRFSGSGSGTDFTLKISRVEAEDVGVYYCSQNTHVPPTFGQGTKVEIERTVAAPSVFIFPPSDEQLKSGTASVVCLLNNFYPREAKVQWKVDNALQSGNSQESVTEQDSKDSTYSLSSTLTLSKADYEKHKVYACEVTHQGLSSPVTKSFNRGEC"
5,114 % of control (=100),"GpH7-A5/GpH7-B3 variant Y300_10E/GpL16-k0 (heterodimerized antibody, He Ab) (antibody, human IgG1, kappa, Anti-glypican-3 IgG1; alteration only in the GpH7-B3 (K439E) chain; other H chain is GpH7-A5 (D356K/H435R)) heavy 1: not shown heavy 2: not shown light: DIVMTQSPLSLPVTPGEPASISCQASESLVHSNRNTYLHWYLQKPGQSPQLLIYKVSNRFSGVPDRFSGSGSGTDFTLKISRVEAEDVGVYYCSQNTHVPPTFGQGTKVEIERTVAAPSVFIFPPSDEQLKSGTASVVCLLNNFYPREAKVQWKVDNALQSGNSQESVTEQDSKDSTYSLSSTLTLSKADYEKHKVYACEVTHQGLSSPVTKSFNRGEC"
6,106 % of control (=100),"GpH7-A5/GpH7-B3 variant Y296_16H/GpL16-k0 (heterodimerized antibody, He Ab) (antibody, human IgG1, kappa, Anti-glypican-3 IgG1; alteration only in the GpH7-B3 (K439E) chain; other H chain is GpH7-A5 (D356K/H435R)) heavy 1: not shown heavy 2: not shown light: DIVMTQSPLSLPVTPGEPASISCQASESLVHSNRNTYLHWYLQKPGQSPQLLIYKVSNRFSGVPDRFSGSGSGTDFTLKISRVEAEDVGVYYCSQNTHVPPTFGQGTKVEIERTVAAPSVFIFPPSDEQLKSGTASVVCLLNNFYPREAKVQWKVDNALQSGNSQESVTEQDSKDSTYSLSSTLTLSKADYEKHKVYACEVTHQGLSSPVTKSFNRGEC"
7,107 % of control (=100),"GpH7-A5/GpH7-B3 variant Y300_11K/GpL16-k0 (heterodimerized antibody, He Ab) (antibody, human IgG1, kappa, Anti-glypican-3 IgG1; alteration only in the GpH7-B3 (K439E) chain; other H chain is GpH7-A5 (D356K/H435R)) heavy 1: not shown heavy 2: not shown light: DIVMTQSPLSLPVTPGEPASISCQASESLVHSNRNTYLHWYLQKPGQSPQLLIYKVSNRFSGVPDRFSGSGSGTDFTLKISRVEAEDVGVYYCSQNTHVPPTFGQGTKVEIERTVAAPSVFIFPPSDEQLKSGTASVVCLLNNFYPREAKVQWKVDNALQSGNSQESVTEQDSKDSTYSLSSTLTLSKADYEKHKVYACEVTHQGLSSPVTKSFNRGEC"
